This is an account of results in patent US20030100021A1.

Experiment in all cases: cell-based or functional assay
Assay [1] has as its target LepR Y985/1077F mutant (pMET7 LepRY985/1077F) (mouse) (UniProt P48356).
Assay [2] concerns the target EpoR/LepR-F3-EpoR chimeric bait receptor (pSEL1-EpoR) (human; mouse) (UniProt P19235).
For assay [3], the target named is EpoR/LepR-F3-p53 chimeric bait receptor (pSEL1-p53) (human; mouse) (UniProt P19235).
Assay [4] addresses LepR-IRS1 bait receptor (pMET7 LepR-IRS1) (mouse; human) (UniProt P48356).
For assay [5], the target named is βc/LepR-F3-ALK4CA + GM-CSFRα/LepR-F3-Smad3 heteromeric bait receptor (Example 8, transfection a) (mouse; human) (UniProt P32927).
Assay [6] deals with βc/LepR-F3-Smad3 + GM-CSFRα/LepR-F3-ALK4CA heteromeric bait receptor (Example 8, transfection b) (mouse; human) (UniProt P32927).

Sequence of EpoR/LepR-F3-EpoR chimeric bait receptor (pSEL1-EpoR) (human; mouse) (P19235 other isoform, or with tags, fused parts or gaps mutant limits assumed, form in doubt): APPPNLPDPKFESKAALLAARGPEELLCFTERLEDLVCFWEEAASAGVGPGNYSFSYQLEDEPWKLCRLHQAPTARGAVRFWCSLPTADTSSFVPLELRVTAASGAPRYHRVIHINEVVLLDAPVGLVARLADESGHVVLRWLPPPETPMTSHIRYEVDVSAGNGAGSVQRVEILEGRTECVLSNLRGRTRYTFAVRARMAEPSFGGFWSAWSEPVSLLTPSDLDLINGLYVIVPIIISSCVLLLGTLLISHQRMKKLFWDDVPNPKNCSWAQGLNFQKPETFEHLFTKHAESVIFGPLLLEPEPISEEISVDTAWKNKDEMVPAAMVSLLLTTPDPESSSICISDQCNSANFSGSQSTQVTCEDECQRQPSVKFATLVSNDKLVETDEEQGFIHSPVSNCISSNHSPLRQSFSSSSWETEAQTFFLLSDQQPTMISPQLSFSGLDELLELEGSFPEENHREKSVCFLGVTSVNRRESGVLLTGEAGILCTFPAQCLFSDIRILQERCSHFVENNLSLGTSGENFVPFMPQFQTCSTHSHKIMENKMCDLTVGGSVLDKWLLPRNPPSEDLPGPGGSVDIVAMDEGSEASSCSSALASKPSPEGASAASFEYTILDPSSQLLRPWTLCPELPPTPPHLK
Sequence of flag-gp130-SVT prey (pMG1-SVT; pMET7-flag-gp130-SVT) (P40189 761-918, tags or fused parts left off): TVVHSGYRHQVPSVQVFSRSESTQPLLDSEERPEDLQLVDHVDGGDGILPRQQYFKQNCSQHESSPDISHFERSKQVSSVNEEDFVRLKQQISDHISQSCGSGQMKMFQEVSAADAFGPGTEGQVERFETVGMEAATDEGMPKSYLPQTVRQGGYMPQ
Sequence of EpoR/LepR-F3-p53 chimeric bait receptor (pSEL1-p53) (human; mouse) (P19235 other isoform, or with tags, fused parts or gaps mutant limits assumed, form in doubt): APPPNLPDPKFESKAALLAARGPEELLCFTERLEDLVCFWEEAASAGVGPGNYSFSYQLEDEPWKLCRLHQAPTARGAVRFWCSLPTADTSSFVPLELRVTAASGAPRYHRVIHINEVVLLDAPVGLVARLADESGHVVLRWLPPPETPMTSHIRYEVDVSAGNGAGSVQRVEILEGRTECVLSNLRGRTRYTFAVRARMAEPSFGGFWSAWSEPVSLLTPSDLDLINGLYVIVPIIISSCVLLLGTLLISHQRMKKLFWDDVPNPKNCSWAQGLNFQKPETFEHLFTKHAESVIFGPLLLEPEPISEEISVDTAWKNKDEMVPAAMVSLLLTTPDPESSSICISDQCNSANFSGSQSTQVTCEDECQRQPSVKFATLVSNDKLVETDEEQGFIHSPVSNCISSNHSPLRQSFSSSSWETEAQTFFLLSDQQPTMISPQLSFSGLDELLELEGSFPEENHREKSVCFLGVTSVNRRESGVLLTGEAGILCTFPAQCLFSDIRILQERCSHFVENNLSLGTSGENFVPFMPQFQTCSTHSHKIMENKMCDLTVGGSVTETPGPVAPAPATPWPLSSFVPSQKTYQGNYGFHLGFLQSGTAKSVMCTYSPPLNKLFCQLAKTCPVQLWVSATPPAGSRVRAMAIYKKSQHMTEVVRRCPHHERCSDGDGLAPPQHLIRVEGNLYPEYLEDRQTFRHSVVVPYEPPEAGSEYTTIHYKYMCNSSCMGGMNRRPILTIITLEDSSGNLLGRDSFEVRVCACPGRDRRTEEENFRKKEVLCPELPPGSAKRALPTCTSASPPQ
Sequence of LepR Y985/1077F mutant (pMET7 LepRY985/1077F) (mouse) (P48356 other isoform, or with tags, fused parts or gaps mutant): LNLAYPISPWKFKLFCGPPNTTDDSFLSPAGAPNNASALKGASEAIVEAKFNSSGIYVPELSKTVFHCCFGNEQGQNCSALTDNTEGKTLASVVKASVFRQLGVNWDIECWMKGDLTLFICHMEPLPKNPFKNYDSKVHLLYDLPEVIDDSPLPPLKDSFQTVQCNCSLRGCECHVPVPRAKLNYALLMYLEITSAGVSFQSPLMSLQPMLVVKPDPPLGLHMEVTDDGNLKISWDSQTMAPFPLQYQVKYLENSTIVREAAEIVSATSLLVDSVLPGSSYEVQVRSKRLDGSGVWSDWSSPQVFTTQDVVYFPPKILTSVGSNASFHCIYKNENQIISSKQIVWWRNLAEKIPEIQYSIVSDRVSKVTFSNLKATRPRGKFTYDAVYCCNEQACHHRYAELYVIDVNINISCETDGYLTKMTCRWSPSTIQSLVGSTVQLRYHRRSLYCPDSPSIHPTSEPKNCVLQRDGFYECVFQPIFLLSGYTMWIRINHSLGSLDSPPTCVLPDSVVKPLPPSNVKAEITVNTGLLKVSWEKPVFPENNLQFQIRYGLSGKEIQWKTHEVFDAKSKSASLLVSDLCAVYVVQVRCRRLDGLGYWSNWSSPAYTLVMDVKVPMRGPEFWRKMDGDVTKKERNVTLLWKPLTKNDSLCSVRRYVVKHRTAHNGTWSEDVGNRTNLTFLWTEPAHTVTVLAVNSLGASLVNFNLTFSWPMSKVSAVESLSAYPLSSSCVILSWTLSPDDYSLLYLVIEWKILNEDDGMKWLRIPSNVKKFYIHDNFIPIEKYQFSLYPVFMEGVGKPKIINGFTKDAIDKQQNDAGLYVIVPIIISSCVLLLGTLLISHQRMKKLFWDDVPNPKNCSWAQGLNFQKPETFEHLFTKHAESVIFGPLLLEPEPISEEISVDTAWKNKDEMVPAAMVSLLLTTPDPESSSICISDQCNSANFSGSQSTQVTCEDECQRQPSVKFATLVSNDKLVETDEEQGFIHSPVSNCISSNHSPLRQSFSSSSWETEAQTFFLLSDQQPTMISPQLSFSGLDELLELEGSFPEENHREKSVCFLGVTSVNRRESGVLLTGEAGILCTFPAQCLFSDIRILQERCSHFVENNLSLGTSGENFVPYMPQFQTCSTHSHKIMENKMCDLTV

Consider “recombinant human leptin (R&D systems) (from UniProt P41159 22-167) (ligand)”, for which, in assay [1], the luciferase activity (rPAP1-luci reporter), fold induction, leptin is 33.2 fold and the luciferase activity (rPAP1-luci reporter), fold induction, leptin co-stimulated with forskolin came out at 37.6 fold.
For the substance “flag-gp130-CIS prey (pMG1-CIS) (from UniProt P40189 761-918; Q62225 2-257)”, in assay [2], the luciferase activity (rPAP1-luci reporter), fold induction, erythropoietin was determined as 6.2 fold and the luciferase activity (rPAP1-luci reporter), fold induction, erythropoietin plus forskolin was determined as 10.5 fold.
Consider “flag-gp130-SVT prey (pMG1-SVT; pMET7-flag-gp130-SVT) (from UniProt P40189 761-918; P03070 261-708)”, for which, in assay [3], the luciferase activity (rPAP1-luci reporter), fold induction, erythropoietin stood at 9.4 fold and the luciferase activity (rPAP1-luci reporter), fold induction, erythropoietin plus forskolin was 14.6 fold.
Consider “flag-gp130-VavS prey (pMG1-VavS) (from UniProt P40189 761-918; P15498 259-789)”, for which, in assay [4], the luciferase activity (rPAP1 promoter), fold induction, leptin amounted to 5.2 fold and the luciferase activity (rPAP1 promoter), fold induction, leptin co-stimulated with forskolin is 12 fold.
In turn, “flag-gp130-GRB2S prey (pMG1-GRB2S) (from UniProt P40189 761-918; P62993 60-158)” displayed a luciferase activity (rPAP1 promoter), fold induction, leptin co-stimulated with forskolin in assay [4] of 2.5 fold.
“pMG2-Smad4 prey (flag-gp130 with 6 STAT recruitment sites fused to human Smad4) (from UniProt Q13485 4-552)”: in assay [5], the luciferase activity (rPAP1 promoter), fold induction, GM-CSF was 3 fold and the luciferase activity (rPAP1 promoter), fold induction, GM-CSF co-stimulated with forskolin is 37 fold. Also, in assay [6], the luciferase activity (rPAP1 promoter), fold induction, GM-CSF was 9 fold and the luciferase activity (rPAP1 promoter), fold induction, GM-CSF co-stimulated with forskolin came out at 71 fold.
